Results as given in article PMC13280853.

What was measured:
[1] = molecular target: porcine pancreatic α-amylase (porcine) (UniProt P00690)
[2] = molecular target: Tenebrio molitor α-amylase (Tenebrio molitor) (UniProt P56634)
[3] = molecular target: human salivary α-amylase (human) (UniProt P0DUB6)
UniProt P0DUB6, sequence (P0DUB6 16-511): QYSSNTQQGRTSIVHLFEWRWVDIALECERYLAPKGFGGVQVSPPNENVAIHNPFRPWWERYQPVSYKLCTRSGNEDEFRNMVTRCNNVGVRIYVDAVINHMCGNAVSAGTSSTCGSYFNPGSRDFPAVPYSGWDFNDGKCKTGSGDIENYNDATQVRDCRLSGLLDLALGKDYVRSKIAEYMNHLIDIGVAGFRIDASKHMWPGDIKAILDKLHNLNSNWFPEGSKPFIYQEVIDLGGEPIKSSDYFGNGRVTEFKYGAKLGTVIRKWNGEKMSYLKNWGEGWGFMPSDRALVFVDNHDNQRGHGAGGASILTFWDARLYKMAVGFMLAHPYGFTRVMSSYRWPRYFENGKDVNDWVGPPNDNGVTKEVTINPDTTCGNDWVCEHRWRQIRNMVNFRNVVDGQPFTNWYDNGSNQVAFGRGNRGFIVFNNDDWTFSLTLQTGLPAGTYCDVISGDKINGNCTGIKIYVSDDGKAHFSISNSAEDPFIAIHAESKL

UniProt P56634, sequence (P56634 whole entry): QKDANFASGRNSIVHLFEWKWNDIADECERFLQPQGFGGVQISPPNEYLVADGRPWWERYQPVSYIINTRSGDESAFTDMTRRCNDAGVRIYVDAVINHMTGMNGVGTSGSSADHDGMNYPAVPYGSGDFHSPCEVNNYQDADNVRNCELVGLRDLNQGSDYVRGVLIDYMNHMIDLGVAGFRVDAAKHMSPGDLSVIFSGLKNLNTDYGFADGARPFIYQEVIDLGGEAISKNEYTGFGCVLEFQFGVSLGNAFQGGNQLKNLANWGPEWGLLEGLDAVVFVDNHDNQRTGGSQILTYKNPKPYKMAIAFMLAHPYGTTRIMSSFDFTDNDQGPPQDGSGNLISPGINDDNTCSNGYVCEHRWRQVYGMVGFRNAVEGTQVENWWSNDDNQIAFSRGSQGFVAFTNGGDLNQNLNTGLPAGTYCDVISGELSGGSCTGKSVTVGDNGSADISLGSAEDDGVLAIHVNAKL
UniProt P00690, sequence (P00690 16-511): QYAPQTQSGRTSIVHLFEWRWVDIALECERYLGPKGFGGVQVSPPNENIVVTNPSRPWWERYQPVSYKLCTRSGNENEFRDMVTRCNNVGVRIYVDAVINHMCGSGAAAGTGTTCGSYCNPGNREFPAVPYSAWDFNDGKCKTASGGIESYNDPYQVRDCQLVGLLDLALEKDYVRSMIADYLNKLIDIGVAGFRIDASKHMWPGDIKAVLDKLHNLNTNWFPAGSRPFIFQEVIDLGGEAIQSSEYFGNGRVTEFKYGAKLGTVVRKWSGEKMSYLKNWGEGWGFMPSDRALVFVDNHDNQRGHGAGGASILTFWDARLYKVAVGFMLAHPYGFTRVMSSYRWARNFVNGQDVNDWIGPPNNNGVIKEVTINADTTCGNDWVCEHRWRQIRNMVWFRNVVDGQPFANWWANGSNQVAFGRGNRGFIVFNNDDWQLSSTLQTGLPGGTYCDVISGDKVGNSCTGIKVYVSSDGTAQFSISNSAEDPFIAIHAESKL

| inhibition of porcine pancreatic α-amylase activity (starch hydrolysis, DNS reagent; fraction at 50 μg/mL, 37 °C, 30 min; relative to 5 mM EDTA as 100% inhibition) [1] [%] | inhibition of T. molitor α-amylase activity (starch hydrolysis, DNS reagent; fraction at 50 μg/mL, 37 °C, 30 min; relative to 5 mM EDTA as 100% inhibition) [2] [%] | inhibition of human salivary α-amylase activity (starch hydrolysis, DNS reagent; fraction at 50 μg/mL, 37 °C, 30 min; relative to 5 mM EDTA as 100% inhibition) [3] [%] | Substance |
| --- | --- | --- | --- |
| 89 | 98 | 93 | LTP-rich fraction P10 from Capsicum chinense seeds |
| 84 | 55 | 91 | subfraction R1 of fraction P10 (lipid transfer protein, Capsicum chinense seeds) |
| 81 | 72 | 85 | subfraction R2 of fraction P10 (lipid transfer protein, Capsicum chinense seeds) |
| 80 | 93 | 92 | subfraction R3 of fraction P10 (lipid transfer protein, Capsicum chinense seeds) |
